Test results from PMC10709299.

Biological target: G6PD Meyer (Arg219Gly) (human) (UniProt P11413)
Assay: SEC; Superdex 200 Increase 10/300, 100 µg recombinant protein loaded, 50 mM Tris-HCl pH 7.5, 150 mM NaCl, 0.5 ml/min; column calibrated with Gel Filtration Standard (Biorad)

- stoichiometry N: 2
Substance: G6PD Meyer (Arg219Gly) (from UniProt P11413-3 1-545) (enzyme)
